Source: paper PMC9431562, “A Cytoplasmic NAD(P)H-Dependent Polysulfide Reductase with Thiosulfate Reductase Activity from the Hyperthermophilic Bacterium Thermotoga maritima” (Microbiology Spectrum, 2022)

Columns and labels:
NSR = biological target: T1, NSR (Thermotoga maritima, UniProt Q9WYL1); test: thin-layer chromatography of cofactor; type: binding; settings: as-purified recombinant enzyme
T1 construct: gene TM_0379; full-length ORF amplified from genomic DNA, pET-24b(+) BamHI/XhoI, His-tagged, E. coli BL21; about 50 kDa by SDS-PAGE; FAD flavoprotein; purified anaerobically
T1 sequence (Q9WYL1 1-443): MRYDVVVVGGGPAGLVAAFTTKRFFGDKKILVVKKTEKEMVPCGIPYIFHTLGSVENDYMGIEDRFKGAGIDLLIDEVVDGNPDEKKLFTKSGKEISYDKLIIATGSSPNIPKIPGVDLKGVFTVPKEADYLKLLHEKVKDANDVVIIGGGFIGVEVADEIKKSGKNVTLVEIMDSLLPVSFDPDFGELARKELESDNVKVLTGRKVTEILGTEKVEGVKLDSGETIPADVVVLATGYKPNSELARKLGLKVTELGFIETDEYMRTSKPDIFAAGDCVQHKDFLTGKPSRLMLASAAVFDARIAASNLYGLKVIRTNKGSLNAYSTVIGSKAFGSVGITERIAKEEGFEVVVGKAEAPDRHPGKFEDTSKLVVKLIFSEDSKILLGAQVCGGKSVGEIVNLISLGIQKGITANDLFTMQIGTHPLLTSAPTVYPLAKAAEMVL

purified protein [1] = substrate: NC(=O)C1=CN([C@@H]2O[C@H](COP(=O)(O)OP(=O)(O)OC[C@H]3O[C@@H](n4cnc5c(N)ncnc54)[C@H](O)[C@@H]3O)[C@@H](O)[C@H]2O)C=CC1; test: purified protein; type: biochemical, Thermotoga maritima; settings: co-substrate S^0, 50 mM phosphate pH 7.0, 45 °C, anaerobic, table cell does not tell whether CoA was present
purified protein [2] = substrate: NC(=O)C1=CN([C@@H]2O[C@H](COP(=O)(O)OP(=O)(O)OC[C@H]3O[C@@H](n4cnc5c(N)ncnc54)[C@H](OP(=O)(O)O)[C@@H]3O)[C@@H](O)[C@H]2O)C=CC1; test: purified protein; type: biochemical, Thermotoga maritima; settings: co-substrate S^0, 50 mM phosphate pH 7.0, 45 °C, anaerobic, table cell does not tell whether CoA was present
purified protein [3] = substrate: O=S(O)(O)=S; test: purified protein; type: biochemical, Thermotoga maritima; settings: co-substrate NADH, 50 mM phosphate pH 7.0, 45 °C, anaerobic, table cell does not tell whether CoA was present

## Cc1cc2nc3c(=O)[nH]c(=O)nc-3n(C[C@H](O)[C@H](O)[C@H](O)COP(=O)(O)OP(=O)(O)OC[C@H]3O[C@@H](n4cnc5c(N)ncnc54)[C@H](O)[C@@H]3O)c2cc1C [FAD]
NSR
  thin-layer chromatography of cofactor: Thin-layer chromatography analysis showed that it binds FAD as its cofactor

B1: NSR (Thermotoga maritima MSB8) (protein)
chain: T1 sequence (Q9WYL1 1-443)
notes: full-length ORF amplified from genomic DNA, pET-24b(+) BamHI/XhoI, His-tagged, E. coli BL21; about 50 kDa by SDS-PAGE; FAD flavoprotein; purified anaerobically
Purified protein [1]
  Km: 50 ± 6.3 µM
Purified protein [2]
  Km: 80 ± 21.2 µM
Purified protein [3]
  Km: 10 ± 1.2 µM
